Source: patent US9213031B2, “Use of Cbl as biomarker for identifying subject suitable for treatment with anti-c-Met antibody” (SAMSUNG ELECTRONICS CO., LTD., priority 2012, dated 2015)

Columns and labels:
HCC827 ER15 cells = conditions: HCC827 ER15, 72 hours, L3-1Y 0.14 μg/ml, Erlotinib 10 nm
Method: HCC827 ER15, which expresses c-Met at a high level but Cbl at a relatively low level was used in assay for the apoptotic effect of a combination dosage of an anti-c-Met antibody and an EGFR antagonist.
Then, cell viability was measured in the same manner as in Example 1.4.

HS746T tumor = assay: Tumor xenograft model, HS746T; format: in vivo, BALB/c nude mice; conditions: 5 mg/kg I.V. once/week, 28th day
Method: (§1) For use in examining in vivo effects of anti-c-Met antibody on tumor growth, male BALB/c nude mice, 5˜6 weeks old, were xenografted with a tumor (all experiments were carried out in Pharmalegacy, China). For at least one week before the transplantation, the mice were acclimated.
(§2) Then, the mice were anesthetized with 1-2% isofuran and xenografted subcutaneously in the right flank with 5×10^6 cells of EBC-1 or HS746T. Seven days after the grafting, the tumors measured 50 mm3 or greater on average. The mice were divided into the following three groups: 5D5 (5 mg/kg I.V. once/week) treated, L3-1Y (5 mg/kg I.V. once/week) treated, and vehicle (PBS 0.2 ml I.V. once/week) treated (control). Each group was composed of 15 mice.
(§3) Over a total of five weeks, volumes and weights of the tumors were measured […]. Tumor volume (V) was calculated according to the following formula: V (mm3)={Long Axis Length (mm)×(Small Axis Length (mm))2}/2.
(§4) L3-1Y (1) is an antibody based on hIgG1 with the Th7 hinge (usually referred to just as L3-1Y) while L3-1Y (2) contains the same epitope but has the hIgG2 backbone. […] Tumor suppression of each of the antibodies was expressed as percentages of volume reduction compared to the tumor volume on the 28th day of the vehicle-treated group (0%) in Table 3 for EBC-1 and Table 4 for HS746T.

EBC-1 tumor = assay: Tumor xenograft model, EBC-1; format: in vivo, BALB/c nude mice; conditions: EBC-1 xenograft, 5 mg/kg I.V. once/week, 28th day
Method: as §1, §2, §3, §4

Molecule | cell viability as percentage of untreated control (HCC827 ER15 cells) | At d28:TV; tumor suppression as percentage of volume reduction compared to vehicle-treated group (HS746T tumor) | At d28:TV; tumor suppression as percentage of volume reduction compared to vehicle-treated group (EBC-1 tumor) [%]
C#Cc1cccc(Nc2ncnc3cc(OCCOC)c(OCCOC)cc23)c1 [Erlotinib] | almost no apoptotic effects |  | 
L3-1Y (2): contains the same epitope as L3-1Y but has the hIgG2 backbone (antibody) heavy: EVQLVESGGGLVQPGGSLRLSCAASGFTFTDYYMSWVRQAPGKGLEWLGFIRNKANGYTTEYSASVKGRFTISRDNSKNTLYLQMNSLRAEDTAVYYCARDNWFAYWGQGTLVTVSSASTKGPSVFPLAPCSRSTSESTAALGCLVKDYFPEPVTVSWNSGALTSGVHTFPAVLQSSGLYSLSSVVTVPSSNFGTQTYTCNVDHKPSNTKVDKTVERKCCVECPPCPAPPVAGPSVFLFPPKPKDTLMISRTPEVTCVVVDVSHEDPEVQFNWYVDGVEVHNAKTKPREEQFNSTFRVVSVLTVVHQDWLNGKEYKCKVSNKGLPAPIEKTISKTKGQPREPQVYTLPPSREEMTKNQVSLTCLVKGFYPSDIAVEWESNGQPENNYKTTPPMLDSDGSFFLYSKLTVDKSRWQQGNVFSCSVMHEALHNHYTQKSLSLSPGK light: DIQMTQSPSSLSASVGDRVTITCKSSQSLLASGNQNNYLAWYQQKPGKAPKMLIIWASTRVSGVPSRFSGSGSGTDFTLTISSLQPEDFATYYCQQSYSRPYTFGQGTKVEIKRTVAAPSVFIFPPSDEQLKSGTASVVCLLNNFYPREAKVQWKVDNALQSGNSQESVTEQDSKDSTYSLSSTLTLSKADYEKHKVYACEVTHQGLSSPVTKSFNRGEC |  | Regression | 87.0
